Legend:
[1] = target: FL HA H1N1 (influenza A virus H1N1); assay: SEC-MALS of FL HA with Fab; theoretical value for trimer with 3 Fabs in brackets
s127H1 = assay: SEC-MALS of polypeptide with Fab; settings: remark: other sources report otherwise
s6E12 = assay: SEC-MALS of polypeptide with Fab; settings: remark: other sources report otherwise
s74H9 = assay: SEC-MALS of polypeptide with Fab; settings: remark: other sources report otherwise
s86B4 = assay: SEC-MALS of polypeptide with Fab; settings: remark: other sources report otherwise
s55G7 = assay: SEC-MALS of polypeptide with Fab; settings: remark: other sources report otherwise
[2] = target: T1, sH1 mini-HA GW1.5E2-FFH (Influenza A virus H1N1 A/Brisbane/59/2007); assay: SEC-MALS with Fab fragments; settings: remark: other sources report otherwise
sH1 mini-HA GW1.5E2-FFH = settings: remark: other sources report otherwise
[3] = target: T1, sH1 mini-HA GW1.5E2-FFH (Influenza A …); assay: biolayer interferometry (Octet), apparent Kd; CR6261; settings: remark: other sources report otherwise

Fab fragment of CR6261 showed a Mw of protein in complex with CRF6261, observed [1] of 396 kDa.

Work on Fab fragment of CR9114 yielded a Mw of protein in complex with CRF9114, observed [1] of 343 kDa.

B1: Fab fragment of CR6261 (Fab, V domains shown)
VH: EVQLVESGAEVKKPGSSVKVSCKASGGPFRSYAISWVRQAPGQGPEWMGGIIPIFGTTKYAPKFQGRVTITADDFAGTVYMELSSLRSEDTAMYYCAKHMGYQVRETMDVWGKGTTVTVSS
VL: QSVLTQPPSVSAAPGQKVTISCSGSSSNIGNDYVSWYQQLPGTAPKLLIYDNNKRPSGIPDRFSGSKSGTSATLGITGLQTGDEANYYCATWDRRPTAYVVFGGGTKLTVLG
Work on B1 yielded an MW complex with CR6261, observed (s127H1) of 74 kDa, an MW complex with CR6261, observed (s6E12) of 67 kDa and an MW complex with CR6261, observed (s74H9) of 72 kDa. For the same molecule, the MW complex with CR6261, observed (s86B4) was 75 kDa, the MW complex with CR6261, observed (s55G7) was 66 kDa and the Fab fragments bound per trimer (Fab fragments per trimer) [2] was 3. For the same molecule, the Mw of protein in complex with CRF6261, observed (sH1 mini-HA GW1.5E2-FFH) was 201 kDa.

B2: monoclonal antibody CR6261 (antibody, V domains shown)
VH: B1 VH
VL: B1 VL
B2 gave a Kd [3] of 1 nM.

Reference: US20170209564A1
